In patent US10703820B2, “Methods and compositions for reducing cardiac damage and other conditions” (Tufts Medical Center, Inc., priority 2013, dated 2020):
Marks after values point to notes of the source that are not given here.

Assays:
endoglin [1] = molecular target: T1, endoglin (Mus musculus, UniProt Q63961); assay: Severe RVPO induced by PAC for 7 days in wild-type mice pre-treated with N-Eng Ab
T1 sequence (Q63961 27-653): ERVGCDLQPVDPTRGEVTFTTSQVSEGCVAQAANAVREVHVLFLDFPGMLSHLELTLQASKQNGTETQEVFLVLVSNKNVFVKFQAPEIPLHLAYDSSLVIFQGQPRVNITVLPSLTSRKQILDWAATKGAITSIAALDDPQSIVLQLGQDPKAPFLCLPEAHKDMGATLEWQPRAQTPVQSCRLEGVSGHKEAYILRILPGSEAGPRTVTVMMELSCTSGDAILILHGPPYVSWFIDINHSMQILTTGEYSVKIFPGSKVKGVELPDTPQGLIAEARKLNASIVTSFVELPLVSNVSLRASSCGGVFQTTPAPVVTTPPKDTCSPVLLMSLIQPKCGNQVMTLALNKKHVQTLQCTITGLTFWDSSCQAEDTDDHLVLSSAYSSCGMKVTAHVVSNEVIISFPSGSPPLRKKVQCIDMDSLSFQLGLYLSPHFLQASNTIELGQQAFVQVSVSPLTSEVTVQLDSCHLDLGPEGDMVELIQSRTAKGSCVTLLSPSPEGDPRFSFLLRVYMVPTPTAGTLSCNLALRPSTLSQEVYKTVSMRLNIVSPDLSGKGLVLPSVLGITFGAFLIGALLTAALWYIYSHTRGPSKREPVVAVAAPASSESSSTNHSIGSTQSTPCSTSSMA
Description: (§2) Specifically, mice were intubated using a 24G angiocath and mechanically ventilated (Harvard Apparatus) at 95 breaths per minute with a tidal volume of 0.3 mL with 2.0-2.5% Isoflurane and 100% flow-through oxygen. Depth of anesthesia was monitored by assessing palpebral reflex, toe pinch, respirations, and general response to touch. Using sterile technique, a left thoracotomy was performed to isolate and encircle the main pulmonary artery using a 7-0 nylon suture that is then tied tightly around a pre-sterilized, blunt end needle. After de-airing, the thorax is closed with layered 6-0 Dexon sutures to eliminate the risk of pneumothorax. Post-operative analgesia is immediately provided with subcutaneous buprenorphine 0.1 mL, which is continued twice daily and as needed for an additional 72 hours. Severe RVPO was induced by PAC with a 25G needle for 7 days in WT and Eng+/− mice. To investigate the role of endoglin in RVPO, WT mice received 15 mg/kg of either a neutralizing antibody to endoglin (N-Eng Ab; TRC105; Tracon Pharma) or an IgG1 control antibody (IgG Ab; R&D Systems) via single intraperitoneal injection 1 day prior to and 3 days after induction of severe RVPO. To study the effect of blocking endoglin activity after induction of RVPO, WT mice were randomized to receive biweekly IP injections for three weeks of 15 mg/kg N-Eng Ab or IgG control Ab beginning three weeks after induction of moderate RVPO using a 23G needle for PAC. […] After 7 days of severe PAC or 3 to 6 weeks of moderate RVPO, mice underwent hemodynamic analysis with a RV conductance catheter (Millar Inc) as previously described in Kapur et al., PLoS ONE. […] Briefly, mice were anesthetized with 2.0% isoflurane administered via a non-invasive nose-cone. Body temperature was monitored by a rectal thermistor probe and maintained at 37.5° C. with heating pads and a cycling heat lamp. In the supine position, the right external jugular vein was surgically isolated. A conductance catheter was advanced into the right ventricle for pressure-volume loop acquisition as described in Kapur et al., PLoS ONE. […] After completion of the hemodynamic study, with the animal still under isoflurane anesthesia, the chest was rapidly opened, and the mouse was euthanized by arresting the heart in diastole with 0.3 mL of 1N KCL injected directly into the left ventricle. The heart was then removed and processed for either biochemical or histologic analyses.
(§3) All animals underwent terminal hemodynamic evaluation. Right heart catheterization was performed at the time of sacrifice in all animals. Mice were anesthetized with 2.0% isoflurane administered by a noninvasive nose cone. Body temperature was monitored by a rectal thermistor probe and maintained at 37.5° C. with heating pads and a cycling heat lamp. In the supine position, the right common carotid and right external jugular vein were surgically isolated. Silk ties were placed at the distal ends of both vessels while overhand loops were placed at the proximal ends with 7-0 nylon. A Millar PVR-1035 (Millar Instruments) mouse conductance catheter was used for RV recordings.

endoglin [2] = assay: TGFβ1 stimulation of right ventricular fibroblasts (RVFB) pretreated with N-Eng Ab; type: cell-based, mouse and human; conditions: N-Eng Ab 10, 50, 100 μg/mL, TGFβ1 10 ng/mL
Description: (§1) 115:67-75, 2007 and Neuss et al., Cell Tissue Res. 286:145-153, 1996. For neutralizing antibody studies in vitro, mouse cardiac fibroblasts were pretreated with 10, 50, or 100 ug/mL of either a N-Eng Ab or control IgG Ab for 24 hours in fibroblast basal medium without supplementation prior to stimulation with TGFβ1 (10 ng/mL). After 24 hours, cells were harvested for analysis. […] 7:e5-920, 2012.

endoglin [3] = molecular target: T2, endoglin (Homo sapiens, UniProt P17813); assay: TGFβ1 stimulation of left ventricular fibroblasts (LVFB) pretreated with N-Eng Ab; type: cell-based, mouse and human; conditions: N-Eng Ab 10, 50, 100 μg/mL, TGFβ1 10 ng/mL
T2 construct: endogenous in cells; host or cells: primary right and left ventricular cardiac fibroblasts (mouse and/or human)
T2 sequence (P17813 26-658): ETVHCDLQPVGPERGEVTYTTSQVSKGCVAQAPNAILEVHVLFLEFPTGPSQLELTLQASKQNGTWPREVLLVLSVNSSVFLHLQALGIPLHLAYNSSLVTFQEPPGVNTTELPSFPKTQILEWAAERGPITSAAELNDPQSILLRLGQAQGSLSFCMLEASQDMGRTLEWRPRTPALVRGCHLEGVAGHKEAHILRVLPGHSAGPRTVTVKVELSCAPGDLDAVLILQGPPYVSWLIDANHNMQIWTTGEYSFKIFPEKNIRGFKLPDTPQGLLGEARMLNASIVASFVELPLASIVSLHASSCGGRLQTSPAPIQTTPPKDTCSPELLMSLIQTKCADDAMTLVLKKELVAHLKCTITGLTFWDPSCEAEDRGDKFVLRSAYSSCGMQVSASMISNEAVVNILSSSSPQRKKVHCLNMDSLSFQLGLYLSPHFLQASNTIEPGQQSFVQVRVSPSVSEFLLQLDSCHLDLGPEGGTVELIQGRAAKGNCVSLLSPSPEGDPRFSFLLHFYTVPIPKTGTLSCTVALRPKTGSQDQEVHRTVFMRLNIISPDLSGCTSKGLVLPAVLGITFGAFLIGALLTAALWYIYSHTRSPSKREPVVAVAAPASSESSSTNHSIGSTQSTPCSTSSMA
Description: as §1

endoglin [4] = molecular target: T1, endoglin; assay: Chronic moderate RVPO (PAC), antibody given from week 3 to week 6
Description: as §2, §3

[5] = Sham, wild-type mice + N-Eng Ab 15 mg/kg IP
[6] = after severe RVPO, compared to the IgG group
[7] = severe PAC 7 days, N-Eng Ab 15 mg/kg IP 1 day prior and 3 days after
[8] = 6 weeks moderate RVPO, antibody for the last 3 weeks
[9] = moderate PAC 6 weeks, N-Eng Ab 15 mg/kg IP biweekly for the last 3 weeks

Substance: N-Eng Ab: neutralizing IgG1 antibody that binds human and mouse endoglin (TRC105), provided by Tracon Pharmaceuticals
- Cardiac output (endoglin [1]; [5]): 4.0 ± 1 mL/min
- Heart rate (endoglin [1]; [5]): 512 ± 59 beats per min
- LV weight/tibial length (endoglin [1]; [5]): 6 ± 0.01
- RV +dp/dt (endoglin [1]; [5]): 2171 ± 283 mm Hg/sec
- RV end-diastolic pressure (endoglin [1]; [5]): 3 ± 2 mm Hg
- RV stroke volume (endoglin [1]; [5]): 8 ± 2 µL
- RV systolic pressure (endoglin [1]; [5]): 24 ± 3 mm Hg
- RV weight/tibial length (endoglin [1]; [5]): 1.5 ± 0.01 g/mm
- RV −dp/dt (endoglin [1]; [5]): 1963 ± 257 mm Hg/sec
- Total body weight (endoglin [1]; [5]): 28 ± 1 g
- Survival (endoglin [1]; after 7 days of severe RVPO, compared to IgG treatment): improved survival
- RV MYH7 mRNA levels (endoglin [1]; after severe RVPO): reduced
- RV TRPC-6 mRNA levels (endoglin [1]; after severe RVPO): reduced
- RV mass (degree of hypertrophy) (endoglin [1]; after severe RVPO): attenuated
- RV α-SMA mRNA levels (endoglin [1]; after severe RVPO): reduced
- RV Type I collagen levels (endoglin [1]; [6]): reduced
- RV calcineurin levels (endoglin [1]; [6]): reduced
- RV fibrosis (endoglin [1]; [6]): significantly reduced
- RV pERK-1/2 levels (endoglin [1]; [6]): reduced
- RV pSmad-3 levels (endoglin [1]; [6]): reduced
- Cardiac output (endoglin [1]; [7]): 2.4 ± 0.2 mL/min
- Heart rate (endoglin [1]; [7]): 514 ± 52 beats per min
- LV weight/tibial length (endoglin [1]; [7]): 5 ± 0.02
- RV +dp/dt (endoglin [1]; [7]): 4130 ± 563 mm Hg/sec
- RV end-diastolic pressure (endoglin [1]; [7]): 4 ± 2 mm Hg
- RV stroke volume (endoglin [1]; [7]): 5 ± 1 µL
- RV systolic pressure (endoglin [1]; [7]): 53 ± 9 mm Hg
- RV weight/tibial length (endoglin [1]; [7]): 1.9 ± 0.01*^,† g/mm
- RV −dp/dt (endoglin [1]; [7]): 3287 ± 350 mm Hg/sec
- Total body weight (endoglin [1]; [7]): 24 ± 2 g
- RV cardiomyocyte cross sectional area (endoglin [1]; severe RVPO, compared to IgG controls (p=0.09)): trend towards lower cardiomyocyte hypertrophy
- TGFβ1 induced calcineurin protein expression (endoglin [2]): inhibited
- TGFβ1 induced protein levels of pERK-1/2 (endoglin [2]): inhibited
- TGFβ1 induced protein levels of pSmad-3 (endoglin [2]): inhibited
- TGFβ1 induced α-SMA protein expression (endoglin [2]): inhibited
- TGFβ1 induced calcineurin protein expression (endoglin [2]; listed as TRC105): attenuated
- TGFβ1 induced calcineurin protein expression (endoglin [3]): not LVFB
- TGFβ1 induced protein levels of pERK-1/2 (endoglin [3]): inhibited
- TGFβ1 induced protein levels of pSmad-3 (endoglin [3]): inhibited
- TGFβ1 induced α-SMA protein expression (endoglin [3]): not LVFB
- TGFβ1 induced calcineurin protein expression (endoglin [3]; listed as TRC105): not LV fibroblasts
- Calcineurin protein expression (endoglin [4]; [8]): reduced
- RV fibrosis (endoglin [4]; [8]): significantly reduced
- Type I collagen protein expression (endoglin [4]; [8]): reduced
- RV fibrosis (endoglin [4]; 6 weeks moderate RVPO, antibody for the last 3 weeks, listed as TRC105): reduced RV fibrosis
- Cardiac output (endoglin [4]; [9]): 1.4 ± 0.6 mL/min
- Heart rate (endoglin [4]; [9]): 550 ± 52 beats per min
- LV weight/tibial length (endoglin [4]; [9]): 4.5 ± 0.2 g/mm
- RV +dp/dt (endoglin [4]; [9]): 4072 ± 875 mm Hg/sec
- RV end-diastolic pressure (endoglin [4]; [9]): 2 ± 1 mm Hg
- RV stroke volume (endoglin [4]; [9]): 3 ± 2 µL
- RV systolic pressure (endoglin [4]; [9]): 69 ± 14 mm Hg
- RV weight/tibial length (endoglin [4]; [9]): 2.5 ± 0.4 g/mm
- RV −dp/dt (endoglin [4]; [9]): 3916 ± 875 mm Hg/sec
- Total body weight (endoglin [4]; [9]): 27 ± 2 g
- Mortality (endoglin [4]; moderate RVPO, any time point): No mortality was observed
